Source: the supplement of paper PMC12042874
± gives the uncertainty stated by the source.

test: amyloid nucleation score (Sup35N fusion, yeast selection) (log enrichment); library NNK2; higher = more nucleation; inactive = no reads after selection
In short: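 Three technical output replicates were used for random libraries. Psi-negative yeast expressing peptides of 20 random codons fused to Sup35N were induced with 100 μM copper sulfate for 24 hours and grown 7 days at 30°C on medium lacking adenine and uracil, and input and output plasmid inserts were Illumina-sequenced, excluding sequences with under 100 input reads. The nucleation score is the DiMSum log enrichment of output over input reads, centred on the mode score of non-aggregating sequences.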

Substance	amyloid nucleation score
LQSCAGTFTCDCVVGRNYGR	0.31 ± 0.23
LQSRWCRVKETWQS	1.66 ± 0.32
LQVMMYFWDEFVTKLEKVSG	-0.809 ± 1.1
LQYFLGAFAILFMCLLWVLQ	0.381 ± 0.64
LRDCLIRNPLKLRTKLTGHV	0.608 ± 0.3
LRFASSNKLVGLD	inactive
LRFVVMVHLE	-0.072 ± 0.79
LRHCVYVYSATSRWIC	0.674 ± 0.43
LRIICMSTMWRKCFRGIATA	-0.195 ± 0.39
LRIQCMMTLVWYSTPQSCNT	5.56 ± 0.066
LRLSHMFLVNMSWGNVINLC	3.28 ± 0.091
LRNHSHA	0.685 ± 0.41
LRSGLSLGSNLPKGGNIRSL	-0.531 ± 1.1
LRSLIYRCVLQWNTAKFLRS	-0.716 ± 1.1
LRSRVSSSLSYKLLFRTNVL	-0.175 ± 0.49
LRSYLNSHLLLEY	-1.44 ± 0.62
LRTIHYPC	inactive
LRTYYPRNVGA	-0.117 ± 0.5
LRWQKNLNSL	-0.778 ± 0.64
LRYPKRGFPNHVLSIESKLD	-0.479 ± 1
LRYSTSHSKNRRSDALNIKG	-0.739 ± 0.45
LRYVEGHGKDITSGGSLEEH	1.41 ± 0.14
LSAVVTSFKVTN	0.523 ± 0.64
LSFVVL	-0.67 ± 1.1
LSGLIGG	-0.135 ± 0.55
LSHMPDMALAKPWHRARD	5.04 ± 0.076

Substance	amyloid nucleation score
LSHRSQYGADVIRSR	-0.316 ± 0.61
LSKMWPPIHTTLIPLTDAER	4.84 ± 0.06
LSLFISGDYWVIQGNIY	3.65 ± 0.059
LSLNFLPYWLPQARCL	5.06 ± 0.099
LSLTNIYGKSIRDERIKTSC	-0.129 ± 0.65
LSLVEIFLGMRSLEVFCWVE	-0.709 ± 0.28
LSLVYRIGLNCNRELSSFDW	2.33 ± 0.1
LSLYWVMSLKSQAP	0.354 ± 0.64
LSMSWC	1.1 ± 0.44
LSMVYYATFDGF	-1.01 ± 1.1
LSMYDLYSMAR	inactive
LSPIVVPLYKQLDIFGVRRN	inactive
LSREFLNASL	-0.947 ± 0.49
LSRFNFSNVLLRRNMSARA	-1.78 ± 0.62
LSRSGNAPDMKKLLNFGQTR	3.71 ± 0.042
LSRSMK	-0.326 ± 0.29
LSSEVISSSHALQKTSICRF	2.72 ± 0.13
LSSGEYVSSGMRGTSCEKSK	-0.007 ± 0.79
LSSIWVSSYHLSWLKSW	-0.048 ± 0.42
LSTSWQRLVTILPLEWYHS	0.052 ± 0.26
LSYSVNWWPRSGWSYYVNEF	-0.176 ± 1.1
LSYVDWKCAVFDICW	3.53 ± 0.043
LTACRVLRLLKCSQRE	4.68 ± 0.075
LTCRTFYNNCVNEWSLHLSL	4.07 ± 0.072
LTGMVTCATI	0.53 ± 0.36
LTHEKLKGLYCTA	-0.404 ± 0.32

Substance	amyloid nucleation score
LTHSRNLRKVRTNRNNETHV	0.005 ± 1
LTLLYIWSKDAVRYLLGNMD	-1.09 ± 1.1
LTRVNWCLPKAGSLKQF	-0.06 ± 0.79
LTSGVHCHKRTVHD	-0.263 ± 1.1
LTSISYIIGDRWSIEVGRVF	-0.337 ± 1.1
LTSSSSSQVWGLYVYDGHLK	-0.045 ± 0.38
LTTKKLRSWV	-0.895 ± 1.1
LTTPLSRQVCMRFRAFNPEA	-0.655 ± 0.41
LTVLCPANLSYRIVYVLLYK	-0.865 ± 0.41
LTWRYLLYPLDKFGLETWVL	0.375 ± 0.46
LTYIRMQVHLVDYDRDALG	-1.32 ± 0.49
LTYYLRSFVIPSWG	inactive
LVALK	1.08 ± 0.51
LVAVVQGFRCVCLDSKLTGV	inactive
LVCGLDGLVCS	0.111 ± 0.56
LVDKVYNDAILLVWDNESRT	-0.464 ± 0.64
LVESGQGDQSAPNRTDWFNG	-0.437 ± 0.49
LVESVTEEQE	0.837 ± 0.47
LVEVIGFVRVSEPISTHA	0.884 ± 0.33
LVFLIETRNFFRLHLSGCWA	-1.27 ± 0.75
LVGYLSSVELDYRWENC	-0.026 ± 0.32
LVHFNFMCVVARMFDMFF	inactive
LVMRMFRERYNLCVSYWLN	inactive
LVNKG	3.15 ± 0.064
LVPSY	0.457 ± 0.18
LVRSVFIRYCISIPCRTRVL	0.034 ± 1.1

Substance	amyloid nucleation score
LVSESTLINSFLQIWFWSTL	-0.324 ± 1.1
LVSRCDDACGIQTGNMV	0.043 ± 0.33
LVSTEIN	3.75 ± 0.052
LVTRTVWGLK	0.223 ± 0.21
LVVCEMY	0.348 ± 0.25
LVVCKHVV	-0.323 ± 0.56
LVWCAISSNNKGLINVLADS	-1.47 ± 0.5
LVWWLSNRV	2.41 ± 0.088
LVYWRQYYCKGRVRLLC	inactive
LWAPAYCLIKC	0.851 ± 0.57
LWGLYNREFNAWRGHFVQDG	inactive
LWGYCTMLSEGH	-0.018 ± 0.2
LWHHIHSDLMTIYFVLDSSG	inactive
LWRIVSWVECIRCTNP	0.182 ± 0.79
LWSFKYFSVCYNLWTIMKGG	inactive
LWSGFLSFVSNVPTFLYLS	-2.01 ± 0.41
LWTKFDSPSRVCHKSQLSKA	0.192 ± 0.26
LYDFRDSYAYVCLTGYKYLG	1.02 ± 0.57
LYDVRGEMSNVGWFM	-0.052 ± 0.54
LYEMVVM	0.05 ± 1
LYERFIVENDCFQNHMKHEA	inactive
LYEVLESVMIGI	-0.097 ± 0.6
LYGHGSILVRTNGGISFRRN	-1.02 ± 1.1
LYGRYANERWRLNSLDEKVT	0.881 ± 0.45
LYIDLHDEALRTTKMDMLNG	inactive
LYKSSIA	-2.08 ± 0.49

Substance	amyloid nucleation score
LYLGMDYWWDV	-0.164 ± 0.33
LYMCSSVLWVGLSLV	0.851 ± 0.56
LYNRLACL	1.86 ± 0.084
LYQVRGTY	0.353 ± 0.22
LYRLGFEAHRVYKQLKIIGG	0.764 ± 0.4
LYRNSMRRDR	-0.669 ± 0.35
LYRQTLLSHL	-0.231 ± 0.24
LYRSSLRFMPTIICETVWMY	inactive
LYVLTNSGPHCLCVGMMHYN	inactive
LYWAFTTISLYLTSTFVSLM	-1.66 ± 1.1
LYWYKY	-0.414 ± 0.79
MALHVQWRVTGSI	5.14 ± 0.037
MALVSTSSFFDV	inactive
MAVYTRVVTLCRGKPFS	1.06 ± 0.35
MCELGFHNSPFSGTFLLLMF	1.64 ± 0.12
MCNFRSWGALLNKRAHGVGS	0.307 ± 0.65
MCQDGCHGFLVTADQPQSGA	-0.148 ± 0.42
MCSPSQEVITYHSDFWNGQK	1.18 ± 0.68
MCTELYEDGNKPTTRSDRSA	3.21 ± 0.1
MCTGRFFSITSYGCKESSYL	1.49 ± 0.26
MDFVNTIATCNKKREVRFVI	-1.1 ± 0.36
MDLRVTVILFSDYEAYFDVT	1.33 ± 0.18
MDQNG	-0.427 ± 0.79
MDYTFSLQTMCGVWYCYWGR	1.31 ± 0.31
MEFDVLSIFQRGSRAGAK	-1.3 ± 0.54
